Patent US20240093246

Tested on: cyanobacterial flavodoxin

Substance	flavodoxin photoreduction turnover rate	fold decrease of flavodoxin reduction against WT PSI	linear rate of flavodoxin photoreduction relative to JVD-1b^H6 PSI	linear rate of flavodoxin photoreduction relative to WT^H6 PSI
wild-type photosystem I purified from strain WT^H6 (PBC4-2[pBSEP5.8])	4.4±0.6 Flvd s^-1 (PSI)^-1			
PSI-MeHydA complex (chimeric photosystem I carrying PsaC-MeHydA, from strain ΨH3^H6)	0.7±0.1 Flvd s^-1 (PSI)^-1	lowers flavodoxin reduction by a factor of 6-8	12.3±2.4% relative to JVD-1b^H6 PSI	˜15.9±2.4% that of WT^H6
wild-type photosystem I purified from strain JVD-1B^H6	5.7±0.3 Flvd s^-1 (PSI)^-1			
